“Also recorded” adds a separate entry of the source.
Experiments:
human CD105 [1] = molecular target: T1, human CD105 (Homo sapiens, UniProt P17813); assay: Competition ELISA against biotinylated TRC205 antibody for binding to human CD105; conditions: biotinylated TRC205 55 ng/ml
T1 construct: purchased R&D Systems 1097-EN
T1 sequence (P17813 26-586 limits assumed): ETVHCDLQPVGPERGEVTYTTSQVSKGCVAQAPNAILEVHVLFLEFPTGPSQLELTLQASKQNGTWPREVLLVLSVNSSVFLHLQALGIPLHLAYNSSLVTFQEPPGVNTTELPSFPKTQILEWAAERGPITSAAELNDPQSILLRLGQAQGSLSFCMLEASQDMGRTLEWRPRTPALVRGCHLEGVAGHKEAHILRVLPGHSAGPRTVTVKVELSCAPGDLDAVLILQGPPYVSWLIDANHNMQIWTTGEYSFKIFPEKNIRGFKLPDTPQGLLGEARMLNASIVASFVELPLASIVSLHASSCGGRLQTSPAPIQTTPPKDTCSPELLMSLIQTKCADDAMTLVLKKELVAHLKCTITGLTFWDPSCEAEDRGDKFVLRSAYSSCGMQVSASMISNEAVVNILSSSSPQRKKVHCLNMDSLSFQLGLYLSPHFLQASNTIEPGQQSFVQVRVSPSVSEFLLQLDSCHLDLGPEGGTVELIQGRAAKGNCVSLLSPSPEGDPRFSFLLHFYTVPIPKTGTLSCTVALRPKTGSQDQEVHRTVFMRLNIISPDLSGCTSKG
Method: After washing three times with PBST, a three-fold dilution series of either human BMP9 (R&D Systems Cat. No. 3209-BP-010) (413 nM to 0.56 nM), or unlabelled TRC205 antibody (40 nM to 0.05 nM) or a single concentration of an irrelevant antibody (66 nM) was mixed with a fixed concentration of biotinylated TRC205 antibody (55 ng/ml) and added to the plate. Following incubation for 1 hour at room temperature, the plate was washed three times with PBST and binding of the biotinylated TRC205 antibody was detected using streptavidin-HRP (Sigma Cat. No. 55512) and TMB substrate (Sigma Cat. No. T0440). OD450 nm values were measured on a Dynex MRX TCII plate reader.

human CD105 [2] = molecular target: T1, human CD105; assay: ELISA binding of biotinylated TRC205 antibody to human CD105; conditions: from the binding curve
Method: An ELISA was established to determine the binding of biotinylated TRC205 antibody to human CD105 as follows: The TRC205 antibody (SEQ ID NO 89/SEQ ID NO 93; IgG4) was biotinylated using a Lightning-Link Biotin Conjugation Kit (Type A) (Innova Biosciences Cat. No. 704-0010) according to the manufacturer's instructions. […] After washing three times with PBST, a three-fold dilution series of biotinylated TRC205 antibody (10 μg/ml to 0.014 μg/ml) in PBST/2% BSA was added in duplicate to the plate. Following incubation for 1 hour at room temperature, the plate was washed three times with PBST and binding of the biotinylated TRC205 antibody was detected using streptavidin-HRP (Sigma Cat. No. 55512) and TMB substrate (Sigma Cat. No. T0440). OD450 nm values were measured on a Dynex MRX TCII plate reader.

NASH mice = assay: Murine model of non-alcoholic steatohepatitis (NASH; STZ and high fat diet); assay type: in vivo, mouse
Excerpt: The purpose of this study was to examine the protective effects of endoglin antibodies on a murine model of NASH.
NASH was established by a single subcutaneous injection of STZ (Sigma, USA) after birth and feeding with a high fat diet (HFD; CLEA Japan, Japan) ad libitum after 4 weeks of age (day 28±2).
Randomization of mice into 6 groups of 10 mice was done at 9 weeks of age (day 63±2), the day before the start of treatment.
Group 3 (Positive control; Temlisartan Group): Ten NASH mice were be orally administered pure water supplemented with telmisartan at a dose of 10 mg/kg once daily from day 63 to 84.
Group 4 (Antibody M1043: M1043 Group): Ten NASH mice were intravenously administered vehicle supplemented with Antibody M1043 at a dose of 10 mg/kg twice weekly at day 63, 66, 70, 73, 77 and 80.
Group 5 (Antibody TRC105; TRC105 Group): Ten NASH mice were intravenously administered vehicle supplemented with Antibody TRC105 at a dose of 10 mg/kg twice weekly at day 63, 66, 70, 73, 77 and 80.
Group 6 (Antibody TRC205; TRC205 Group): Ten NASH mice were intravenously administered vehicle supplemented with Antibody TRC205 at a dose of 10 mg/kg twice weekly at days 63, 66, 70, 73, 77 and 80.
Mice in all groups were terminated for the following assays at 12 weeks of age.
H&E staining of liver tissue was conducted to estimate NAFLD Activity score.
Total NAS score represents the sum of scores for steatosis, lobular inflammation, and ballooning, and ranges from 0-8. Diagnosis of NASH (or, alternatively, fatty liver not diagnostic of NASH) should be made first, then NAS is used to grade activity. In the reference study, NAS scores of 0-2 occurred in cases largely considered not diagnostic of NASH, scores of 3-4 were evenly divided among those considered not diagnostic, borderline, or positive for NASH. Scores of 5-8 occurred in cases that were largely considered diagnostic of NASH.
Statistical tests were performed using Bonferroni Multiple Comparison Test. P values<0.05 were considered statistically significant.

[3] = liver gene expression, mean ± SD, Normal-Vehicle 1.0

IC50 of competition with biotinylated TRC205 antibody (human CD105 [1]): 0.26 µg/mL | EC50 of binding to human CD105 (human CD105 [2]): 0.046 µg/mL
B1: TRC205: humanized and deimmunized anti-endoglin antibody (SEQ ID NO 89/SEQ ID NO 93; IgG4) (antibody, V domains shown)
VH: EVQLVESGGGLVKPGGSLRLSCAASGFTFSDAWMDWVRQAPGKGLEWVGEARSKASNHATYYAESVKGRFTISRDDSKNTLYLQMNSLKTEDTAVYYCTRWRRFFDSWGQGTLVTVSS
VL: DIQMTQSPSSLSASVGDRATITCRASSSVSYMHWYQQKPGKAPKPWAYATSNLASGVPSRFSGSGSGTDYTLTISSLQPEDFATYYCQQWSSNPLTFGGGTKVEIK
Alpha-smooth muscle actin mRNA expression levels compared with the NASH-Vehicle group (NASH mice; Bonferroni, P<0.05): significantly down-regulated | Liver triglyceride contents compared with the NASH-Vehicle group (NASH mice; Bonferroni, P<0.05): significant decreases | Mean liver-to-body weight ratio compared with the NASH-Vehicle group (NASH mice; Bonferroni, P<0.05): tended to decrease; also recorded: no significant difference | NAS compared with the NASH-Vehicle group (NASH mice; Bonferroni, P<0.05): significant decreases in NAS; also recorded: significant reductions of NAS | Serum alanine aminotransferase (ALT) levels compared with the NASH-Vehicle group (NASH mice; Bonferroni, P<0.05): tended to decrease | Serum alkaline phosphatase (ALP) levels compared with the NASH-Vehicle group (NASH mice; Bonferroni, P<0.05): significant decrease | Serum aspartate aminotransferase (AST) levels compared with the NASH-Vehicle group (NASH mice; Bonferroni, P<0.05): tended to decrease | Tissue inhibitor of metalloproteinase-1 mRNA expression levels compared with the NASH-Vehicle group (NASH mice; Bonferroni, P<0.05): tended to decrease | Tumor necrosis factor-alpha mRNA expression levels compared with the NASH-Vehicle group (NASH mice; Bonferroni, P<0.05): tended to increase | F4/80-positive signals and cells in liver compared with the NASH-Vehicle group (NASH mice; F4/80 immunostaining, macrophage marker): Lower F4/80-positive signals and positive cells | Alpha-SMA mRNA expression (NASH mice; [3]): 1.1 ± 0.3 | MCP-1 mRNA expression (NASH mice; [3]): 9.3 ± 9.1 | TIMP-1 mRNA expression (NASH mice; [3]): 6.0 ± 2.6 | TNF-α mRNA expression (NASH mice; [3]): 6.2 ± 2.4 | Liver triglyceride (NASH mice; mean ± SD): 29.3 ± 9.4 mg/g liver | Serum ALP (NASH mice; mean ± SD): 264 ± 63 U/L | Serum ALT (NASH mice; mean ± SD): 28 ± 16 U/L | Serum AST (NASH mice; mean ± SD): 83 ± 41 U/L | Sirius red-positive area (NASH mice; mean ± SD, liver sections): 0.93 ± 0.14% | NAS (NAFLD Activity score) (NASH mice; mean ± SD, range 0-8, 10 mg/kg): 3.6 ± 1.1 | Lobular inflammation score 0, number of mice (NASH mice; score 0 = No Foci): 5 | Hepatocyte ballooning score 0, number of mice (NASH mice; score 0 = None): 1 | Steatosis score 1, number of mice (NASH mice; score 1 = 5-33%): 6 | Hepatocyte ballooning score 1, number of mice (NASH mice; score 1 = Few balloon cells): 4 | Lobular inflammation score 2, number of mice (NASH mice; score 2 = 2-4 foci/200x): 4 | Steatosis score 2, number of mice (NASH mice; score 2 = >33-66%): 3 | Hepatocyte ballooning score 2, number of mice (NASH mice; score 2 = Many cells/prominent ballooning): 4 | Inflammatory cell infiltration in the liver (NASH mice; summary of lobular inflammation score and F4/80 immunostaining): reductions in inflammatory cell infiltration in the liver

Reference: patent US9926375B2, “Anti-endoglin antibodies and uses thereof” (Tracon Pharmaceuticals, Inc., priority 2014, dated 2018)
